Measured values reported in US20050164186, “Alteration of restriction endonuclease specificity by genetic selection” (published 2005).

Molecular target: T1, BstYI NN1 (K133N/S172N) (Bacillus stearothermophilus, K133N,S172N)
T1 chain: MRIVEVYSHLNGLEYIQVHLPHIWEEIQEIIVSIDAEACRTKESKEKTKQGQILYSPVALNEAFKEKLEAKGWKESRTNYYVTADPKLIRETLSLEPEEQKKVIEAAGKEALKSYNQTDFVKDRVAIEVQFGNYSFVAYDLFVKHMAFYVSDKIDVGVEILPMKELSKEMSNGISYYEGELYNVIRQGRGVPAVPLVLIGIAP
Assay: cleavage_in_vitro; 60 C
Conditions: label: radiolabel

B1: AGATCT site, 60 bp substrate (dsDNA)
DNA 1: AGATCT
DNA 2: AGATCT
binding signal: 7 fold preference over AGATCC/GGATCT
